From US20180305695

Biological target: von Willebrand factor A1 domain (Homo sapiens) (UniProt P04275)
Test: SPR
Conditions: 37 C

CGAGGCTCCCCANCTTTCGCCNACANCCGAGGGAGCCTCG [vWF1-DsDsDs-GC]
Kd (n = Ds at 3 positions, phosphate buffer 155 mM NaCl, 0.05% NP-40): 1080 pM

CGAGGCTCCCCANCTTTCGCCNACANCCGAGGGAGCCTCGCGCGTAGCG [vWF1-DsDsDs-mhGC]
Kd (n = Ds at 3 positions, phosphate buffer 155 mM NaCl, 0.05% NP-40, koff 0.00159 1/s, printed as GCmh): 780 pM

CGCGGCCGANGAGCACCGAAGGTCTCAACGNTGGAGGCCGCGCGCGTAGCG [vWF2-DsDsDs-2mhGC]
Kd (n = Ds, likely pM (protein 0.078-5 nM)): 6.13e+07 pM

CGTGACCGANGAGCACCTAACNGGTCTCAACGNTGGAGGTCACG [vWF2-DsDsDs]
Kd (n = Ds at 3 positions, likely pM (protein 0.078-5 nM)): 7.49e+07 pM

TGAGACTCCCCANCTTTCGCCNACANCCGAGGGAGTCTCA [vWF1-DsDsDs]
Kd (n = Ds (7-(2-thienyl)-3H-imidazo[4,5-b]pyridin-3-yl) at 3 positions, phosphate buffer 155 mM NaCl, 0.05% NP-40): 1030 pM
